Consider 39 variants from the RNAGym collection of RNA variant scans (doi:10.7554/elife.80360).

First the molecules themselves.
B1: CPEB3 Ribozyme (parent)
chain: GGGGGCCACAGCAGAAGCGUUCACGUCGCGGCCCCUGUCAGAUUCUGGUGAAUCUGCGAAUUCUGCUGU

In this series the parent is B1. Put plainly: self-cleavage, relative activity (ratio to wild type); higher = more cleavage; co-transcriptional.
GGGGGCCUCAGCAGAAGCGUUCACGUCGCGGCCCCUGACAGAUUCUGGUGAAUCUGCGAAUUCUGCUGU: the self-cleavage was determined as 0.871.

Take GGGGGCCUCAGCAGAAGCGUUCACGUCGCGGCCCCUGGCAGAUUCUGGUGAAUCUGCGAAUUCUGCUGU: the self-cleavage amounted to 0.221.

As to GGGGGCCUCAGCAGAAGCGUUCACGUCGCGGCCCCUGCCAGAUUCUGGUGAAUCUGCGAAUUCUGCUGU, the self-cleavage amounted to 1.01.

As to GGGGGCCUCAGCAGAAGCGGUCACGUCGCGGCCCCUGUCAGAUUCUGGUGAAUCUGCGAAUUCUGCUGU, the self-cleavage was 0.163.

For the variant GGGGGCCUCAGCAGAAGCGAUCACGUCGCGGCCCCUGUCAGAUUCUGGUGAAUCUGCGAAUUCUGCUGU, the self-cleavage worked out at 0.116.

Regarding GGGGGCCUCAGCAGAAGCGCUCACGUCGCGGCCCCUGUCAGAUUCUGGUGAAUCUGCGAAUUCUGCUGU, the self-cleavage was 0.25.

For GGGGGCCUCAGCAGAAGCGUUCACGUCGCGGCCCCUGUCAGAUUCUGGGGAAUCUGCGAAUUCUGCUGU, the self-cleavage came to 1.02.

As to GGGGGCCAAAGCAGGAGCGUUCACGUCGCGGCCCCUGUCAGAUUCUGGUGAAUCUGCGAAUUCUGCUGU, the self-cleavage was determined as 1.03.

As for GGGGGCCUCAGCAGAAGCGUUCACGUCGCGGCCCCUGUCAGAUUCUGGUGAAUCUGCGAAUUCUGCGGU, the self-cleavage stood at 1.03.

Consider GGGGGCCUCAGCAGAAGCGUUCACGUCGCGGCCCCUGUCAGAUGCUGGUGAAUCUGCGAAUUCUGCUGU, for which the self-cleavage is 0.932.

Consider GGGGGCCUCAGCAGAAGCGUUCACGUCGCGGCCCCUGUCAGAUCCUGGUGAAUCUGCGAAUUCUGCUGU, for which the self-cleavage is 0.933.

In the case of GGGGGCCUCAGCAGAAGCGUUCACGUCGCGGCCCCUGUCAGAUUCUGGUGAAUCUGCGAAAUCUGCUGU, the self-cleavage was 0.944.

As for GGGGGCCUCAGCAGAAGCGUUCACGUCGCGGCCCCUGUCAGAUUCUGGUGAAUCUGCGAAGUCUGCUGU, the self-cleavage turned out to be 0.959.

Regarding GGGGGCCAAUGCAGAAGCGUUCACGUCGCGGCCCCUGUCAGAUUCUGGUGAAUCUGCGAAUUCUGCUGU, the self-cleavage was 1.05.

On to GGGGGCCAAAGCAGAAGCGUUCGCGUCGCGGCCCCUGUCAGAUUCUGGUGAAUCUGCGAAUUCUGCUGU, for which the self-cleavage came out at 1.02.

As for GGGGGCCAAAGCAGAAGCGUUCUCGUCGCGGCCCCUGUCAGAUUCUGGUGAAUCUGCGAAUUCUGCUGU, the self-cleavage is 1.

As for GGGGGCCUCAGCAGAAGCGUUCACGUCGCGGCCCCUGUCAGAUUCUGGUGAACCUGCGAAUUCUGCUGU, the self-cleavage was determined as 0.901.

For the variant GGGGGCCUCAGCAGAAGCGUGCACGUCGCGGCCCCUGUCAGAUUCUGGUGAAUCUGCGAAUUCUGCUGU, the self-cleavage was 0.588.

With GGGGGCCUCAGCAGAAGCGUCCACGUCGCGGCCCCUGUCAGAUUCUGGUGAAUCUGCGAAUUCUGCUGU, the self-cleavage came out at 0.846.

For GGGGGCCUCAGCAGAAGCGUUCACGUCGCGGCCCCUGUCAGAUUCUGGUGAAUCUGCGAAUUCUGCUGA, the self-cleavage stood at 1.05.

As for GGGGGCCUCAGCAGAAGCGUUCACGUCGCGGCCCCUGUCAGAUUCUGGUGAAUCUGCGAAUUCUGCUGC, the self-cleavage is 1.06.

Take GGGGGCCAAAGCAGAAGCGUUCACGUCGCGGCCCCUGUCCGAUUCUGGUGAAUCUGCGAAUUCUGCUGU: the self-cleavage amounted to 0.71.

For GGGGGCCUCAGCAGAAGCGUUCACGUCGCGGCCCCUGUCAGACUCUGGUGAAUCUGCGAAUUCUGCUGU, the self-cleavage came out at 0.951.

For GGGGGCCUCAGCAGAAGCGUUCACGUCGCGGCCCCUGUCAGAAUCUGGUGAAUCUGCGAAUUCUGCUGU, the self-cleavage was 0.899.

On to GGGGGCCUCAGCAGAAGCGUUCACGUCGCGGCCCCUGUCAGAUUCUGGUGAAUCUGCGAAUUCAGCUGU, for which the self-cleavage worked out at 0.969.

For GGGGGCCAAAGCAGAUGCGUUCACGUCGCGGCCCCUGUCAGAUUCUGGUGAAUCUGCGAAUUCUGCUGU, the self-cleavage was 0.957.

For the variant GGGGGCCUCAGCAGAAGCGUUCACGUCGCGGCCCCUGUCAGAUUCCGGUGAAUCUGCGAAUUCUGCUGU, the self-cleavage is 0.998.

As for GGGGGCCUCAGCAGAAGCGUUCACGUCGCGGCCCCUGUCAGAUUCGGGUGAAUCUGCGAAUUCUGCUGU, the self-cleavage is 1.01.

For GGGGGCCUCAGCAGAAGCGUUCACGUCGCGGCCCCUGUCAGAUUCAGGUGAAUCUGCGAAUUCUGCUGU, the self-cleavage came to 1.

With GGGGGCCUCAGCAGAAGCGUUCACGACGCGGCCCCUGUCAGAUUCUGGUGAAUCUGCGAAUUCUGCUGU, the self-cleavage is 0.893.

For the variant GGGGGCCUCAGCAGAAGCGUUCACGCCGCGGCCCCUGUCAGAUUCUGGUGAAUCUGCGAAUUCUGCUGU, the self-cleavage amounted to 0.924.

For GGGGGCCUCAGCAGAAGCGUUCACGGCGCGGCCCCUGUCAGAUUCUGGUGAAUCUGCGAAUUCUGCUGU, the self-cleavage stood at 0.97.

Consider GGGGGCCUCAGCAGAAGCGUUCACGUCGCGGCCCCUGUCAGAUUCUGGUGAAUCUGCGAAUCCUGCUGU, for which the self-cleavage was 0.994.

Regarding GGGGGCCAAAGCGGAAGCGUUCACGUCGCGGCCCCUGUCAGAUUCUGGUGAAUCUGCGAAUUCUGCUGU, the self-cleavage was 0.901.

For the variant GGGGGCCAAAGCUGAAGCGUUCACGUCGCGGCCCCUGUCAGAUUCUGGUGAAUCUGCGAAUUCUGCUGU, the self-cleavage came out at 0.725.

GGGGGCCUCAGCAGAAGCGUUCACGUCGCGGCCCCUGUCAGAUUCUGGUGAAUCCGCGAAUUCUGCUGU: the self-cleavage was determined as 0.912.

Take GGGGGCCUCAGCAGAAGCGUUCACGUCGCGGCCCCUGUCAGAUUCUGGUGAAUCGGCGAAUUCUGCUGU: the self-cleavage worked out at 0.823.

With GGGGGCCUCAGCAGAAGCGUUCACGUCGCGGCCCCCGUCAGAUUCUGGUGAAUCUGCGAAUUCUGCUGU, the self-cleavage stood at 0.887.

As to GGGGGCCUCAGCAGAAGCGUUCACGUCGCGGCCCCAGUCAGAUUCUGGUGAAUCUGCGAAUUCUGCUGU, the self-cleavage came to 0.229.
